Test results published in US20090004212A1, “Tumour vaccines for MUC1-positive carcinomas” (priority 1997, published 2009).
Values joined by “and” are separate entries in the source; they are usually repeats but may differ in a detail not shown here. Equal entries are not always repeated. No end group written: not given here. O‑glycan = not defined here

What was measured:
[1] = molecular target: T1, human 20S immunoproteasomes (Homo sapiens, UniProt P28062+P28065+P40306); experiment: In vitro proteolysis of MUC1 repeat peptides and glycopeptides by immunoproteasomes; type: biochemical; conditions: for AHG 8 to -11 / PAP8 to -11 / SAP8 to -11: 8- to 11-meric fragments with this N-terminus, % of total 8- to 11-mers; for AVERAGE FRAGMENT LENGTH / NUMBER OF FRAGMENTS: digest by immunoproteasomes; for NUMBER OF FRAGMENTS: HPLC and MALDI-MS; for % of glycopeptide: glycosylated 8- to 11-meric fragments relative to total 8- to 11-mers; for 8-11 mers (%): relative to total amount of digestion products of immunoproteasomal cleavage
T1 construct: purchased Immatics Biotechnologies (Tübingen, Germany)
Description: A 1 mg/ml solution of immunoproteasomes prepared according to a published protocol (20) was purchased from Immatics Biotechnologies (Tübingen, Germany) and stored frozen at −80° C.
Glycopeptides were incubated with 10 μg of human 20S immunoproteasomes (Immatics) for […], at 37° C., in 10 μl of digestion buffer (20 mM HEPES/KOH, pH 7.6 containing 2 mM Mg(CH3COO)2 and 1 mM DTT) as described (13). Digestion was stopped after 24 h by freezing the sample at −80° C. Human cathepsin-L was purchased from Sigma (Munich, Germany) and solubilized in 0.1 M sodium acetate, pH 5.5, containing 1 mM EDTA and 1 mM dithiothreitol (12). About 5 mU of enzyme were added to sialoglycopeptide substrates SGGP1 to SGGP5 (75-100 μM) in a total volume of 20 μl. The reaction mixtures were incubated at 37° C. for 24 h and 1 μl of trifluoroacetic acid was added to stop the reaction. The reaction products were cleaned by solid-phase extraction on ZipTipC18 pipette tips and 0.5 μl aliquots were applied onto the MALDI target for mass spectrometric analysis. Kinetic studies with the non-glycosylated 100-mer P1 were performed under the same conditions and the products were chromatographed on HPLC for purification and quantification.

[2] = test system: DC2.4 mouse dendritic cells; experiment: Cellular processing and cross-presentation in mouse dendritic cell line, peptides eluted from exosomal MHC; type: cell-based
Description: Poly-lactic acid based vesicles were generated mixing two solutions: Solution A: 200 nmol of P2 peptide (1 mg) resolved in 3% cold water solution of poly-vinyl alcohol; Solution B: 5% poly-lactic acid in a mixture of ethanol and acetone (9:1, v/v). Solution B (30 ml) was slowly added to solution A (150 ml) under constant mixing and stirring overnight at room temperature. The next day the mixture was centrifuged at 10.000×g for 10 min and washed three times with PBS (200 ml), followed by centrifugation steps as mentioned previously. The generated vesicles were resuspended in 330 μl of PBS and added to media of 4×108 DC2.4 mouse dendritic cells growing confluent in nine cell culture flasks (300 cm^2). The cells were grown as usual, but in exosome-depleted medium.
Cells were incubated with PLA-vesicles for 24 h at 37° C. and 5% CO2. The cell culture supernatant was collected and exosomes were isolated by ultracentrifugation (see below). Isolated exosomes were resuspended in 100 μl 0.1% TFA/H2O. Acidification of exosomes denatures tertiary MHC complex and releases bound peptide epitopes. The solution was shortly spun and injected on a HPLC narrow-bore ODS column for separation of eluted peptides and glycopeptides. Fractions were collected manually, dried and analyzed by MALDI-TOF-MS as described. Molecular masses of detected ions were analyzed by the FindPep software and by nanospray ESI-MS/MS analyses.
Exosomes were isolated from FCS or cell culture supernatant by subsequent centrifugation steps: 10 min/1200 g; 30 min/10000×g; 30 min/20.000×g; and 60 min/[…]. The exosomes were pelleted in the final centrifugation step, washed with PBS and used for further analyses. For the depletion of FCS from exosomes, exosomes from serum were pelleted by ultracentrifugation at 110.000×g for 1 h.

HLA-A0201 = molecular target: T2, HLA-A0201 (Homo sapiens, UniProt P04439, D140Y/D185E/D98H/E176V/E277Q/G131W/G231S/I119V/I121R/I166T/I218V/L300P/L318F/N151K/N90K/P208A/P217A/Q86G/Q94H/R138H/R169H/T345S); experiment: MHC stabilization assay on T2 cells; type: binding; conditions: for ligation strength (binding to HLA-A0201): T2 cells, 100 μg peptide, 16 h, W6/32 antibody, FACS; for change of ligation strength by introduction of GalNAc: glycosylated versus non-glycosylated form
T2 construct: endogenous in cells; host or cells: T2 cell line (TAP-deficient)
Description: MHC stabilization assay is based on the increased affinity of HLA-A, -B, -C specific monoclonal W6/32 antibody for the stabilized conformation of MHC molecules after binding of a peptide ligand. The T2 cells express empty MHC molecules with short half-life.
For MHC stabilization assay T2 cells were grown in IMDM medium supplemented with 2% FCS. T2 cells were washed in PBS from the residual serum, and resuspended at 1×10^6/ml of IMDM supplemented with 0.1% FCS and 25 mM HEPES. Half of a million of cells were incubated in 48-well cell culture plate with 1 μg of […]2-microglobulin and 100 μg of peptide for 16 h at 27° C. and 8% CO2. Cells were washed with 5 ml PBS, centrifuged at 180×g for 5 min and the pellet was resuspended in 10 μl PBS containing 1 μg of W6/32 antibody and incubated at 4° C. for 30 minutes.
Subsequently, cells were washed in PBS with 1% BSA (3×5 ml) and the pellet was resuspended in 50 μl of secondary anti-mouse Alexa 488 antibody (1:1000 in PBS with 0.1% BSA), incubated for 30 minutes in the dark, washed with PBS (3×5 ml) and resuspended in 500 μl of PBS. Binding of the W6/32 antibody to MHC class I molecules was analyzed by FACS on the Beckman Coulter ADCXL4C flow cytometer. As a positive control hepatitis B virus core antigen HBVc18-27 P6Y˜C ([…]) was used. As a negative control T2 cells were used, to which no peptide was added.
Relative binding capacities of the peptides were expressed as the percent of the positive control signal (100%), normalized to the negative control (0%). A mean fluorescence that was at least 10% higher than the negative control level was considered positive binding.

CD8+ T-cells = experiment: IFN-gamma and TNF-alpha production by peptide-primed T-cells; type: cell-based, human; conditions: after last cycle of restimulation, 4 weeks of in vitro culture
Description: (§1) Peripheral blood mononuclear cells (PBMCs) were isolated from buffy coats of HLA-A*0201 healthy donors by Ficoll-Hypaque (MP Biomedicals, Solon, Ohio) density gradient centrifugation.
(§2) Dendritic cells (DCs) were generated by culturing adherent monocytes for 6 days in AIM-V medium (Invitrogen, Carlsbad, Calif.) supplemented with 500 U/mL granulocyte macrophage colonystimulating factor (GM-CSF, R&D, Minneapolis, Minn.) and 1000 U/mL interleukin (IL)-4 (R&D), and then matured for 48 hours with a cocktail of cytokines consisting of 10 ng/mL of each, tumor necrosis factor (TNF)-alpha, IL-6, IL-1beta (R&D), and 1 μg/mL prostaglandine E2 (Sigma, St. Louis, Mo.). […] DCs pulsed with single peptides were combined, washed, resuspended and used as stimulator cells. They were added to the autologous lymphocyte fraction in 24-well Linbro plates (ICN, Aurora, Ohio) at a ratio of 1:10 at culture initiation and fed in RPMI 1640 media supplemented with 10% human AB serum, 10 ng/ml rhIL-6 (R&D) and 5 ng/ml rhIL-12 (PreproTech, Rocky Hill, N.J.). On day 10 and thereafter every 9 days, T cells were restimulated at a ratio of 1 DC to 20 T cells, in RPMI 1640 media supplemented with 10% human AB serum, rhIL-2 and rhIL-7 (20 U/ml each, R&D).
(§3) Antigen Specificity was Assessed after 4 Stimulations. Three Days Past Each stimulation cell supernatant was collected and IFNy secretion was quantified using OptElA human IFNy ELISA kit (BD). CD8+ T-cells were enriched using magnetic microbeads (human CD8+ T Cell Isolation Kit II from Miltenyi Biotech, Auburn, Calif.) according to the manufacture's instructions and analyzed by flow cytometry for intracellular IFN-gamma and TNF-alpha production after a final 5-hour restimulation with peptide-loaded DCs in the presence of monensin (Golgi Stop, BD; 21). CTL activity was determined 3 days after the last restimulation. […] They were washed, labeled with 5- (and 6)-carboxyfluorescein diacetate succinimidyl ester (CFSE) according to the manufacture's instructions (Immunochemistry, Bloomington, Minn.) and added to a 96-well plate in duplicates at 5000 cells/well. CFSE labeled T2 cells not loaded with peptides were used as controls. CD8+ T effector cells were added at various E:T ratios for a 6-hour incubation at 37° C. Target cell death was detected by adding 7-amino-actinomycin (7-AAD, Immunochemistry) to each well 10 min before data analysis by flow cytometry and analysis was performed according to the manufacture's instructions (22).

T2 target cells = experiment: CTL activity against peptide-loaded T2 target cells (CFSE/7-AAD); type: cell-based, human; conditions: T2 cells loaded with 10 μg/ml peptide, 6-hour incubation
Description: as §1, §2, §3

| AVERAGE FRAGMENT LENGTH [1] | NUMBER OF FRAGMENTS [1] | % of glycopeptide [1] | 8-11 mers (%) [1] [%] | Molecule | class I binding activity [2] | also measured |
| --- | --- | --- | --- | --- | --- | --- |
| 11.6 | 46 | 26% | 79 | AHGVTSAPESRPAPGSTAPPA [GP5] (AHGVT(O‑glycan)SAPESRPAPGSTAPPA; not fully specified; reading uncertain; also: glycan structure not given here; listed as Homo sapiens) [MUC1 glycopeptide, glycosylated threonine within the VTS motif] |  | AHG 8 to -11 [1]: 26%; PAP8 to -11 [1]: 47%; SAP8 to -11 [1]: 27% |
| 10.6 | 46 | 98% and 96% | 35 | AHGVTSAPESRPAPGSTAPPA [GP6] (AHGVTSAPES(O‑glycan)RPAPGSTAPPA; reading uncertain; also: glycan structure not given here; listed as Homo sapiens) [MUC1 glycopeptide, glycosylated within the ESR motif] |  | AHG 8 to -11 [1]: 55%; PAP8 to -11 [1]: 3%; SAP8 to -11 [1]: 42% |
| 10.5 | 46 | 21% | 35 | AHGVTSAPESRPAPGSTAPPA [GP8] (AHGVTS(O‑glycan)APESRPAPGSTAPPA; reading uncertain; also: glycan structure not given here; listed as Homo sapiens) [chemically synthesized MUC1 derived glycopeptide, glycosylation site not readable] |  |  |
| 11.6 | 31 | 0% | 50 | AHGVTSAPESRPAPGSTAPPA [P4] (fragment of digested MUC1; listed as Homo sapiens) [Peptide P4] |  |  |
|  |  |  |  | APESRPAP (fragment of MUC1; listed as Homo sapiens) | considerable class I binding activity |  |
|  |  |  |  | APESRPAPG (fragment of MUC1; listed as Homo sapiens) | considerable class I binding activity |  |
|  |  |  |  | APESRPAPGS (fragment of MUC1; listed as Homo sapiens) | considerable class I binding activity |  |
| 11.7 | 61 | 40% and 39% | 29 | HGVTSAPESRPAPGSTAPPA [GP7] |  | AHG 8 to -11 [1]: 8%; PAP8 to -11 [1]: 31%; SAP8 to -11 [1]: 61% |
|  |  |  |  | PESRPAPGS (fragment of MUC1; listed as Homo sapiens) | considerable class I binding activity |  |
|  |  |  |  | PESRPAPGST (fragment of MUC1; listed as Homo sapiens) | considerable class I binding activity |  |
|  |  |  |  | S(-GalNAc)APDTRPAPG ({Ser(GalNAc)}-APDTRPAPG) |  | ligation strength (binding to HLA-A0201) (HLA-A0201): strongly reduce binding affinity in comparison with the corresponding nonglycosylated peptide |
|  |  |  |  | SAPES(GalNAc)RPAPG [Peptide F3] |  | CD8+ cells producing IFN-γ (CD8+ T-cells): 18.1%; TNF-α production by CD8+ cells (CD8+ T-cells): not TNF-α; lysis of peptide-pulsed T2 target cells by induced CD8+ T cells (T2 target cells): only minimal increased cell lysis above the background lysis |
|  |  |  |  | SAPESRPAPG (fragment of MUC 1; listed as Homo sapiens) | considerable class I binding activity |  |
|  |  |  |  | SAPESRPAPGS (fragment of MUC1; listed as Homo sapiens) | considerable class I binding activity |  |
|  |  |  |  | ST(-GalNAc)APPAHGVT ({Ser-T(GalNAc)}-APPAHGVT) |  | ligation strength (binding to HLA-A0201) (HLA-A0201): strongly reduce binding affinity in comparison with the corresponding nonglycosylated peptide |
|  |  |  |  | STAPPAHGV [STA9] |  | ligation strength (binding to HLA-A0201) (HLA-A0201): strongest binders; change of ligation strength by introduction of GalNAc (HLA-A0201): reducing it to the level of the negative control |
|  |  |  |  | STAPPAHGVT [STA10] | considerable class I binding activity | ligation strength (binding to HLA-A0201) (HLA-A0201): strongest binders; change of ligation strength by introduction of GalNAc (HLA-A0201): reducing it to the level of the negative control |
| 17.5 | 105 | 0% | 26 | A(HGVTSAPESRPAPGSTAPPA)x3 (peptide, listed as Homo sapiens, Fragment of digested MUC1) AHGVTSAPESRPAPGSTAPPAHGVTSAPESRPAPGSTAPPAHGVTSAPESRPAPGSTAPPA |  |  |
